T1: Scrambled Y46,48,51(SO3) PSGL-1(42-62) biotin peptide (sulfotyrosine at peptide positions 5, 7 and 10; C-terminal Lys-biotin)
T1 construct: also called scrambled sulfated peptide: biotin
T1 peptide: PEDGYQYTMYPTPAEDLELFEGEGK

T2: Biotin Y46,48,51(SO3) PSGL-1(42-62) peptide (human, sulfotyrosine at Y46, Y48 and Y51; C-terminal Lys-biotin)
T2 construct: also called fully sulfated N-terminal PSGL-1 peptide
T2 peptide: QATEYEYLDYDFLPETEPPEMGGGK

T3: Biotin PSGL-1(42-62) peptide, unmodified (human, C-terminal Lys-biotin)
T3 construct: Residues 42-62 followed by GGGK-biotin; also called WT; wild-type
T3 peptide: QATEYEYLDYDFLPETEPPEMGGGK

T4: Biotin sY51 PSGL-1(42-62) peptide (human, sulfotyrosine at Y51; C-terminal Lys-biotin)
T4 construct: also called Y51(SO3) PSGL-1(42-62)
T4 peptide: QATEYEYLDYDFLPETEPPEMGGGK

T5: Recombinant human PSGL-1(ECD)-hFc1 (R&D Systems, Cat. 3345-PS) (human, UniProt Q14242 42-305)
T5 construct: Bought; Gln42-Val295 counted on AAC50061; also called PSGL-1-Fc; PSGL-1-hFc1 chimera; not shown: human IgG1 Fc, Pro100-Lys330
T5 sequence: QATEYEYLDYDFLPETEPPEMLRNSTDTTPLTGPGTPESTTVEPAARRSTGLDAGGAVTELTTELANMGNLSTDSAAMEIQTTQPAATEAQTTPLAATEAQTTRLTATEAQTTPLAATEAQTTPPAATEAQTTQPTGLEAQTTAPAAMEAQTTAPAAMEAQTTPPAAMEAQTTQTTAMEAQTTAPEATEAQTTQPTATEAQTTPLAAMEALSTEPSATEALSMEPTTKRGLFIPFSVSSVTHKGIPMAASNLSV

T6: Cynomolgus PSGL-1(ECD)-HIS (cynomolgus macaque)
T6 construct: also called Cyno PSGL1-His
T6 chain: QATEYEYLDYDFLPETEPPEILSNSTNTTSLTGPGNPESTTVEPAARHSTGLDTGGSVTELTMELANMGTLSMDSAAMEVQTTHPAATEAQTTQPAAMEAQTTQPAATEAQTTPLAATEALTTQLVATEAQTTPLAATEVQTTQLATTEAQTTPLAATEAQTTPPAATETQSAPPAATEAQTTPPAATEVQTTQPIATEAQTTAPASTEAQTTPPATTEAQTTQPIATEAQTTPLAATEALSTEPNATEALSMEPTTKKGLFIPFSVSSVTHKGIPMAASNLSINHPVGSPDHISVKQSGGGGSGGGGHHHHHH


Tests used:
[1] = biological target: T1, Scrambled Y46,48,51(SO3) PSGL-1(42-62) …; assay: ELISA, immobilized biotin peptide
In short: (§1)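 In this ELISA, half-well high binding plates (Corning Cat. #3690) received 3 ug/mL/25 ul per well of biotin-tagged PSGL-1 peptides covering residues 42 to 62, diluted in PBS, pH 7.4, and coated overnight at 4° C. Duplicate readings for each antibody were averaged and the average assay background was subtracted. PSGL-1 protein or peptide was the positive control.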

[2] = biological target: T2, Biotin Y46,48,51(SO3) PSGL-1(42-62) …; assay: ELISA, immobilized biotin peptide
In short: as §1

[3] = biological target: T3, Biotin PSGL-1(42-62) peptide, unmodified; assay: ELISA, immobilized biotin peptide
In short: as §1

[4] = biological target: T4, Biotin sY51 PSGL-1(42-62) peptide; assay: ELISA, immobilized biotin peptide
In short: as §1

[5] = biological target: T5, Recombinant human PSGL-1(ECD)-hFc1 (R&D …); assay: blocking ELISA vs L-selectin-Fc
In short: (§2)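 Antibodies, diluted serially in duplicate in 3% BSA, were incubated for 45 min at 37° C on wells coated with 2.5 ug/mL PSGL-1-Fc.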

[6] = biological target: T6, Cynomolgus PSGL-1(ECD)-HIS; assay: ELISA, plate cyno PSGL-1(ECD)-HIS
In short: (§3)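 Binding signal is TMB absorbance at 450 nm from HRP detection of IgG captured on immobilized cyno PSGL-1 extracellular domain, averaged over duplicates after background subtraction. Antibodies were tested at one concentration (20 nM) or across 0.003-200 nM, incubating 45 min at 37° C.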

[7] = biological target: T2, Biotin Y46,48,51(SO3) PSGL-1(42-62) …; assay: ELISA, plate-bound target
[8] = biological target: T3, Biotin PSGL-1(42-62) peptide, unmodified; assay: ELISA, plate-bound target
[9] = biological target: T5, Recombinant human PSGL-1(ECD)-hFc1 (R&D …); assay: blocking ELISA vs P-selectin-Fc
In short: as §2

[10] = biological target: T5, Recombinant human PSGL-1(ECD)-hFc1 (R&D …); assay: blocking ELISA vs VISTA-Fc, pH 6.0
[11] = biological target: T7, Cynomolgus PSGL-1(ECD)-hFc1 (cynomolgus macaque); assay: ELISA, 20 nM mAb on plate cyno PSGL-1(ECD)-Fc
T7 construct: also called Cyno PSGL1-Fc; Cyno PSGL-1(ECD)-Fc
In short: as §3

T7 sequence (chain, as listed by the source limits assumed): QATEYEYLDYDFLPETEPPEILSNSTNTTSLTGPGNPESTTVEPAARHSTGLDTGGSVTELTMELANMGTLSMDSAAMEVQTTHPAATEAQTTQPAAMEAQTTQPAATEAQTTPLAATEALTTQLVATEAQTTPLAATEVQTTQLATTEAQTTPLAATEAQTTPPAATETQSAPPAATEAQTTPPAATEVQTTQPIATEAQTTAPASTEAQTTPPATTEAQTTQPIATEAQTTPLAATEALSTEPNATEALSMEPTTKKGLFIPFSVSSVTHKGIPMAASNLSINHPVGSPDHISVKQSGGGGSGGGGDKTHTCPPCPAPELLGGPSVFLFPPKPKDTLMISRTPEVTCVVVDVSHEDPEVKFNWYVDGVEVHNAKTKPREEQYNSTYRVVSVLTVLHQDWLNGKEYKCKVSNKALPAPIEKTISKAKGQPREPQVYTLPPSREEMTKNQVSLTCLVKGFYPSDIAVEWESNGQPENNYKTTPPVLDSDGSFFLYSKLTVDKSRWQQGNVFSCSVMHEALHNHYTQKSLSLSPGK

Row | Binder | EC50 [1] | EC50 [2] | EC50 [3] | EC50 [4] | % max Block [5] | EC50 [6] | EC50 [7] | EC50 [8] | % max Block [9] | % max Block [10] | IC50 [5] | IC50 [9] | IC50 [10] | binding result [1] | A450nm [11]
1 | 5E12 (antibody, V domains shown, Mouse hybridoma mAb; only variable domains given) VH: EIQLQQSGAELVRPGASVKLSCTASGFNIKDDYIHWVKQRPEQGLEWIGRIDPANGNTKSAPKFQDKATITADTSSNTAYLHLSSLTSEDTAVYYCSIRFAYWGQGTLVTVSA VL: DVVMTQTPLSLSVSLGDQASISCRSSQSLVYRNGDTYLHWFLQKPGQSPKLLIYKVSNRFSGVPDRFSGSGSGTDFTLKISRVEAEDLGIYFCSQNTHVPYTFGGGTKLEIK | 32.3 nM | 0.633 nM | 0.539 nM | 0.547 nM | 0% | 0.59 nM | 0.92 nM | 0.86 nM | 0% | 0% |  |  |  |  | 
2 | 19I01 (antibody, V domains shown, From mouse immunisation; only variable domains given; also called 19101) VH: EVQLVESGGGLVKPGGSRKLSCAASGFTFSDYGMHWVRQAPEKGLEWVAYISSGSSTIYYADTVKGRFTISRDNAKNTLFLQMTSLRSEDTAMYYCARGVDGYWGQGTTLTVSS VL: DVVMTQTPLSLPVSLGDQASISCRSSQSLVHSNGNTYLHWYLQKPGQSPKFLIYKVSNRFSGVPDRFSGSGSGTDFTLKISRVEAEDLGVYFCSQTTHVPLTFGAGTKLELK | 198 nM | 0.844 nM | 0.844 nM | 1.22 nM | 100% | 0.68 nM | 0.92 nM | 0.92 nM | 100% | 100% | 5 nM | 4 nM | 8 nM |  | 
3 | 16L15 (antibody, V domains shown, From mouse immunisation; only variable domains given) VH: DVKLVESGGGLVKLGGSLKLSCAASGFTFSSYYMSWVRQTPEKRLEWVATISNGGGSTYYPDSVKDRFTISRDNAKNTLYLQMSSLNSEDTAVYYCAKPLYYSNPWFAYWGQGTLVTVSA VL: DVLLTQTPLSLPVSLGDQASISCRSSQSIVHSNGNTYLEWYLQKPGQSPKLLIYKVSNRFSGVPDRFSGSGSGTDFTLKISRVEAEDLGVYYCFQGSHVPRTFGGGTKLEIK |  | 0.699 nM | 0.695 nM | 0.814 nM | 100% | 0.53 nM | 0.92 nM | 0.89 nM | 100% | 100% | 9 nM | 10 nM | 6 nM | no binding | 1.22 A450 nm
4 | 18F02 (antibody, V domains shown, From mouse immunisation; only variable domains given) VH: QVQLQQPGAELVKPGASVKLSCKASGYTFTSYWMHWVKQRPGQGLEWIGMIHPNSGRTNYNEKFKSKATLTVDKSSSTAYMQLSSLTSEDSAVYYCARSDYWGQGTTLTVSS VL: DIVMTQAAFSNPVTLGTSASISCRSSKSLLHSDGITYLYWFLQRPGQSPQLLIYRMSNLASGVPDRFSGSGSGTDFTLRISRVEAEDVGVYYCAQMLEFPRTFGGGTKLEIK |  | 0.658 nM | 0.702 nM | 0.705 nM | 100% | 0.51 nM | 0.45 nM | 0.68 nM | 100% | 100% | 10 nM | 6 nM | 10 nM | no binding | 2 A450 nm
5 | 2E12 (antibody, V domains shown, Mouse hybridoma mAb; only variable domains given) VH: QVQLQQSGAELARPGASVKLSCKASGYTFTNYGLNWVKQRTGQGLEWIGEIYPRSGNTYYNEKFKGKATLTADKSSSTAYMQLSSLTSEDSAVYFCATEGAYWGQGTLVTVSA VL: DIVMTQTPLTLSVTIGQPASISCKSSQSLLHGNGKTYLNWLLQRPGQSPKLLIYLVSKLESGIPDRFSGSGSGTDFTLEISRVEAEDLGIYYCLQSTHFPRTFGGGTKLEIK | 30 nM | 0.87 nM | 0.694 nM | 0.659 nM | 0% | 0.58 nM | 1.21 nM | 1.02 nM | 0% | 0% |  |  |  |  | 

Reference: US20220396632A1 (VERSEAU THERAPEUTICS, published 2022)
